Test system: MS2 coat protein
Test: apparent KD of MS2 coat protein; higher = weaker reporter binding
Conditions: Eterna round: R107
Procedure, shortened: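 Designed RNA switches were transcribed on-chip from Illumina sequencing clusters. They were then titrated with SNAP-549-labelled MS2 coat protein (twofold steps, 0.7 or 1.5 nM to 3 µM; 0.8–1.5 h to 10–20 min per step) in 100 mM Tris-HCl pH 7.5, 80 mM KCl, 4 mM MgCl2, without or with constant ligand. Apparent KD is the per-design median of normalised cluster binding-curve fits.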

[1] = input ligand: theophylline 20 uM
[2] = input ligand: theophylline 2 mM
[3] = input ligand: tryptophan 2.4 mM

| Sequence | apparent KD of MS2 coat protein (input ligand: arginine 13.2 mM) | apparent KD of MS2 coat protein (input ligand: none) | apparent KD of MS2 coat protein [1] | apparent KD of MS2 coat protein [2] | apparent KD of MS2 coat protein [3] |
| --- | --- | --- | --- | --- | --- |
| ACAAGAGGGAUGGAUACCAGCGACAUGAGGAUCACCCAUGUAUGAGGAUCAGCCAUGUUAUGCCCUUGGCAGCCACGAAGAUCAG [XXXMULLIN] | 27.1 nM | 25.1 nM | 32.8 nM | 104 nM | 21.6 nM |
| CACGAAAGAUCGGCCGCCACUCAUGUUUCUUACAUGAGGAUCACCCAUGUAUUUUCUUUCUUUUAGAGGACCGGGAUCGAGCGUG [#01 Same State - Tryptophan B] | 46.8 nM |  | 78.4 nM | 47.2 nM |  |
| GGGUAAGAUCCGGAUACCAGCGAACAUGAGGAUCACCCAUGUGAAAUAAGAUAGAAUAAACGCCCUUGGCAGCCGAAAUAGAGUU [Same State Theophylline B GF 3] | 41.3 nM |  | 81.9 nM |  | 88.9 nM |
| ACAUGAGGAUCACCCAUGUGAAGCAGGGUACGAGGACCGGUACGGCCGCCACUCGAGCAUUAUACCGAGUGAAUGGCAACGAUGU [whbob_Ex_trypto A_2s17] | 14.4 nM |  | 19 nM | 21.1 nM |  |
| GGAUGAAACUGAAGGAGCGAGAUCACAAGAUUGGGUCUAACAUGAGGAUCACCCAUGUAAUCUCAGGUAGGUCGCAGUGUCCCUU [Exclusion Arginine B GF 12] | 33 nM | 26.6 nM | 42 nM | 43.5 nM | 31.6 nM |
| ACACGGCAUGAUGGAUCACCUCGUGAAUCACGAGGACCGGUACGGCCGCCACUCGAAAACCGUGACCUGUACGAAAAGUGCAGGA | 36 nM | 53 nM | 254 nM | 758 nM | 38.8 nM |
| AAACAUUGCUGCGAUACCAGACAUGAGGAUCACCCAUGUACCAAGGUAAGAAAAUAACAUGUCCCUUGGCAGCGCAGCAAUGAAA [MAT - Exclusion Theophlline B - Mod of Eli - D2] | 19.2 nM |  | 33.4 nM |  | 15.8 nM |
| GCACAAGAUGGAAGGAGCGCUGGAAAAGGUCACAUGAGGAUCACCCAUGUUCUCCUAACCGAGCAGGUAGGUCGCCAUCUUGUGC [SSAB NP+V+V2 #1] | 24 nM | 23.7 nM | 25.6 nM | 29.8 nM | 25.9 nM |
| CCGAACAUGAGGAUCACCCAUGUUAGGGAUACCAGCUCAGACAUGGGCCCUUGGCAGCUCUAUAGCUGACGAAAGUCAGCAUCGG [#15 SameState-TheophyllineA] | 36.1 nM | 35 nM | 46.3 nM | 23.7 nM | 35.4 nM |
| ACAUGAGGAUCACCCAUGUGUGUAAGUCCUCGAGGACCGGUACGGCCGCCACUCGAACGAGUGUAACAUACUUGUUACAAGUAUG [SS Trp A s3] | 18.5 nM |  | 39.9 nM | 43.3 nM |  |
| UCGUGUAUAUCGGAUACCAGUGAAAACGAUACAUGAGGAUCACCCAUGUGAGUUGAUGUACACCCUUGGCAGCUGUAUAUAUCUA [fokullin] | 16.1 nM |  | 22.7 nM |  | 18.6 nM |
| UACUGUCUAACGGCCGCCACUCAGUCUCGGUUGAUUAUCUUAAGUGACAUGAGGAUCACCCAUGUGAGGACCGGGUUGUGCAUAA [theeternabot_exclusion_MS2_Trp_B_40] | 60.4 nM |  | 91.3 nM | 96.7 nM |  |
| CCUCGAUUUUGAUACCGAUAUGUCUUUGAUACCAGCGCCAUAGUACGCCCUUGGCAGCAAGAAACAUGAGGAUCACCCAUGUUAA [theeternabot_exclusion_MS2_Theo_A_36] | 16.9 nM |  | 26.4 nM |  | 16.7 nM |
| GUAAGACAUGAGGAUCACCCAUGUGUCGAUACCAGCCCUGCCUCUGGCCCUUGGCAGCGACUCGCACACCUCGCACUGCACAAGU [theeternabot_sameState_MS2_Theo_A_13] | 42.6 nM |  | 59.5 nM |  | 49 nM |
| GGCCCUGCGAGCGCUCGCAGGGCCGCGGAUACCAGCGAGGUCCAUCGCCCUUGGCAGCCGAACAUGAGGAUCACCCAUGUCGGUC [#1 Same State - Theophylline A Attempt #11 (HarryS)] | 11.4 nM | 11.6 nM | 18.7 nM | 28.1 nM | 10.7 nM |
| UGUAUGGACUGAAGGAGCGCCUCAAAAUAACAUGAGGAUCACCCAUGUGGCGAAAGCCAAGGGCAGGUAGGUCGCAGUCCAUACU [ArgBX 4 #StaticStem #MS2Late] | 27.3 nM | 26.4 nM | 34.2 nM | 32.9 nM | 32 nM |
| ACGAAACAAGCGGCCGCCACUUCGUGGUGCUAAGGCUUGAUACUACAUGAGGAUCACCCAUGUCGAAGGACCGGGCUUGCGACUG [theeternabot_sameState_MS2_Trp_B_33] | 43.4 nM |  | 80 nM | 60 nM |  |
| AAGACGGUCGGAAGGAGCGGUACAUGAGGAUCACCCAUGUAUUCCUGGGCAUCCGUAGUGUGCCAGGUAGGUCGCCGAUUGCGGG [XArg-B13] | 40.3 nM | 37.9 nM | 91.7 nM | 97.2 nM | 40.9 nM |
| AAGACAUGAGGAUCACCCAUGUCGUCAACACGAGGACCGGUACGGCCGCCACUCGCAUGCCAAUGAGCGCAUGCGGCCUGGGUAU [Exclusion Tryp A GF4] | 8.77 nM | 14.8 nM | 18 nM | 13.8 nM | 34.3 nM |

| Sequence | apparent KD of MS2 coat protein (input ligand: arginine 13.2 mM) | apparent KD of MS2 coat protein (input ligand: none) | apparent KD of MS2 coat protein [1] | apparent KD of MS2 coat protein [2] | apparent KD of MS2 coat protein [3] |
| --- | --- | --- | --- | --- | --- |
| GAUCUGUCGGGUGAUACCAGCCUCGGCGCGUCUCGCGCUGAACAUGAGGAUCACCCAUGUGGCCCUUGGCAGCACAUGACAAAUC [Ditere] | 189 nM |  | 488 nM |  | 598 nM |
| ACUAGAGGUGGAAGGAGCGGGAGACAUGAGCAUCACAUGAGGAUCACCCAUGUAGGAUCAUCCCAGGUAGGUCGCCAUGUCGAAA [h.hgmullin] | 88.4 nM | 363 nM | 290 nM | 218 nM | 173 nM |
| CUGUUUGUUUGGGUCUGUCAAAAGAACGAUACCAGCCGCAUUAUGGGCCCUUGGCAGCGUAGGACAUGAGGAUCACCCAUGUACG [theeternabot_exclusion_MS2_Theo_A_16] | 16 nM |  | 22 nM |  | 16.2 nM |
| UCACGAGGCCUGGAUACCAGCGACAUGAGGAUCACCCAUGUAUGAGGAUCAGCCAUGUUAUGCCCUUGGCAGCCACGAAGGUCAU [XZZMULLIN] | 14.5 nM |  | 26.5 nM |  | 15.8 nM |
| AAGAGUUGACAAAAGUCAGCUCAAACCGAAGGAGCGGGAGAAAUCCCAGGUAGGUCGCGGUUACAUGAGGAUCACCCAUGUUCCU [ArgAS 6 #BothOrNeither #OpenEnded] | 68.1 nM | 355 nM | 376 nM | 300 nM | 273 nM |
| UCGUGUAUAUCGGAUACCAGUGAAAUCGAUACAUGAGGAUCACCCAUGUGAGAGGAUGUACACCCUUGGCAGCUGUAUAUAUCUG [ll,lmullin] | 18 nM |  | 25.1 nM |  | 20.4 nM |
| UGGUACAUGAGGAUCACCCAUGUUCCAGAUACCAGAUACCCGGUUAUCCCUUGGCAGCUGGUGUUACAUGAGGAUCACCCAUGUU [Exclusion Theophylline A GF16] | 23.9 nM | 30.4 nM | 46 nM | 81.9 nM | 37.2 nM |
| GCAUCCUAGUCGGCCGCCACUGCAUCACCGGUCCUAGGUGAUCAACAUGAGGAUCACCCAUGUAGCAGGACCGGGACUAGGAUGC [(Trp1)-(MT)''-(MT)'-(Ms2)-(Trp2)_Design2] | 345 nM | 491 nM | 320 nM | 636 nM | 19.9 nM |
| GGCACCAGGAGAAGGAGCGUGAAGACAUGAGGAUCACCCAUGUAGAGGCCCGUACAGGGUUCGCAGGUAGGUCGCUCCUGGUGCC [#1 Same State - Arginine B Attempt #12 (HarryS)] | 19.3 nM | 18.4 nM | 27.3 nM | 22.6 nM | 18.8 nM |
| ACUCGGCAUCAUGAUACCAGAGAGCCCGAGAUGCCUUAACACAUGAGGAUCACCCAUGUACUCCCUUGGCAGCAUCAUGCACUAU [theeternabot_exclusion_MS2_Theo_B_31] | 16.6 nM |  | 29 nM |  | 22.7 nM |
| GCAUCCUAGUCGGCCGCCACUGCAUGUAGAUACCUGCUACAUGAACAUGAGGAUCACCCAUGUAGCAGGACCGGGACUAGGAUGC [(Trp1)-(MT)''-(MT)'-(Ms2)-(Trp2)_Design1] | 47.4 nM | 58.8 nM | 63.6 nM | 69.4 nM | 15.5 nM |
| AAGAUACUCUGAAGGAGCGUCAUAAAACAUGAGGAUCACCCAUGUGCGCGGGUGUAAUUAUGACAGGUAGGUCGCAGAGUAUUUA [Arg B SS t2] | 424 nM | 179 nM | 515 nM | 601 nM | 442 nM |
| ACAUGAGGAUCACCCAUGUACAUGAGGGAAGGAGCGGUACAUGAGCCAGGUAGGUCGCCCAUGAGCAUCAGCCAUGUACAUCAGC [vv,mmullin] | 40.9 nM | 115 nM | 97.6 nM | 101 nM | 75.7 nM |
| UAUUAUCAGUCGGCCGCCACUGACACAUGAGGAUCACCCAUGUAAUUUGGGUUAUAUAUAAAUUACAGGACCGGGACAAAGGCUA [JR_ExcTryptoB_Sub013] | 114 nM |  | 318 nM | 396 nM |  |
| AGACAUGAGGAUCACCCAUGUAGUAUGGAUACCAGAUCCAGAUUUAUCCCUUGGCAGCUGUGGUACAGCGAUGGAUCGCUCCUAG [Exclusion - Theophylline A (Freestyle 11)] | 22.6 nM |  | 34 nM |  | 28 nM |
| ACUACGAAGACGGCCGCCACUGAUAUUCGUAGAUCCAUCAAUACAUGAGGAUCACCCAUGUAUAUCAGGACCGGGUCAAGAUGGU [Tryp B Ex t6] | 23.3 nM |  | 39.2 nM | 28.2 nM |  |
| CCCUGGGUGGGAAGGAGCGCAUAGUGAACAUGAGGAUCACCCAUGUGCAGACGUGAGUCAUUGCAGGUAGGUCGCCCACCCAGGG [SS-ArgB22] | 10.2 nM | 18.9 nM | 21.4 nM | 30.2 nM | 20.9 nM |
| AGAAUAACACAUGAGGAUCACCCAUGUGAUACCAGCUAGGAAACUAGCCCUUGGCAGCACAUAAUCCUCAUGAGCUGCCAUAAUA [(M1)-(M2)-(T1)-(T2)-(M)'-(T)'_Design2_2/19/17] | 12 nM |  | 19.2 nM |  | 12.3 nM |

From the supplement of paper PMC9170038
